These results are taken from patent publication US6904369.

This assay deals with Kit, the receptor for SCF (UniProt P10721). As to the kind of experiment: cell-based or functional assay.
Chain of Kit, the receptor for SCF (P10721 26-976 limits assumed): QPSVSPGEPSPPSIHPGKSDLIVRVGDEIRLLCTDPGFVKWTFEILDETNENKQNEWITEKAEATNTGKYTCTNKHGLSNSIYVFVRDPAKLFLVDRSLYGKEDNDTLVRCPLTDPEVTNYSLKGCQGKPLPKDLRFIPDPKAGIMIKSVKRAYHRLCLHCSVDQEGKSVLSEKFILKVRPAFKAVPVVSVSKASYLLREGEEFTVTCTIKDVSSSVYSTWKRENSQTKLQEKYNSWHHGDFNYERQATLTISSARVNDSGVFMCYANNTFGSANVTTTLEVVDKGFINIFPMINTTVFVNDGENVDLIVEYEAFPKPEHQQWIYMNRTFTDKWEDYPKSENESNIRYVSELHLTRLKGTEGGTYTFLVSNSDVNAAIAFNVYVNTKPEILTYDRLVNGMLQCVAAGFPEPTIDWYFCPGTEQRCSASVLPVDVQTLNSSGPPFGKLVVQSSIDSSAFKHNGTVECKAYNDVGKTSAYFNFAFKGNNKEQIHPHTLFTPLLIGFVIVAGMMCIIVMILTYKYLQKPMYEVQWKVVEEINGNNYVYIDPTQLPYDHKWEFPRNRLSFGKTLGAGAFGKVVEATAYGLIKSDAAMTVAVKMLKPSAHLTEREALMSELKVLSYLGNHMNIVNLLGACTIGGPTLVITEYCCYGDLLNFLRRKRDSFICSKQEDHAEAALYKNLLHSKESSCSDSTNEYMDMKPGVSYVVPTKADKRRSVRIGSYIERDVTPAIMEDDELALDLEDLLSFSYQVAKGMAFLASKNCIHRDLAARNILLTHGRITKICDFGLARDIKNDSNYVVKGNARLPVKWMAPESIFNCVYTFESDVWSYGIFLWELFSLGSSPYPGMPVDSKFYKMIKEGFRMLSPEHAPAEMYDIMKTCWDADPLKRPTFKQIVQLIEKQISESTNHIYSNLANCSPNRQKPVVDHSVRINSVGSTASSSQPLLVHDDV

As to “SCF(D25C) (from UniProt P21583 26-166) (ligand)”, the Biological Activity (Approximate, compared to wild type SCF) (fold lower than wild type SCF) was 100.
In turn, “SCF(K62C) (from UniProt P21583 26-166) (ligand)” gave a Biological Activity (Approximate, compared to wild type SCF) (fold lower than wild type SCF) of 7.
In turn, “SCF(R117A, I118A) (from UniProt P21583 26-166) (ligand)” gave a Biological Activity (Approximate, compared to wild type SCF) (fold lower than wild type SCF) of 10.
In turn, “SCF(K78N, N81K) (from UniProt P21583 26-166) (ligand)” returned a Biological Activity (Approximate, compared to wild type SCF) (fold lower than wild type SCF) of 3.
